Assay results taken from PMC11134608 (2023).
No end group written: not given here. fluorescein = fluorescein (FAM) fluorescent label

Key:
[1] = target: T1, RARA/RXRA heterodimer (ligand-binding domains) (UniProt P10276 175-421; P19793 224-462); experiment: FP; Kapp, competition with fluorescein-NCOA1 peptide, + ATRA
T1 chain 1: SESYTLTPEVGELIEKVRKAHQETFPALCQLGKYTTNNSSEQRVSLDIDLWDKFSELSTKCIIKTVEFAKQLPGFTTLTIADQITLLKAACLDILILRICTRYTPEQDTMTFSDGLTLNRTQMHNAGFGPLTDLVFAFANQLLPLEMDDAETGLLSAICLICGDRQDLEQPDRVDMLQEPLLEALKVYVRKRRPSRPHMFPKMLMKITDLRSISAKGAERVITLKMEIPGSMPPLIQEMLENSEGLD
T1 chain 2: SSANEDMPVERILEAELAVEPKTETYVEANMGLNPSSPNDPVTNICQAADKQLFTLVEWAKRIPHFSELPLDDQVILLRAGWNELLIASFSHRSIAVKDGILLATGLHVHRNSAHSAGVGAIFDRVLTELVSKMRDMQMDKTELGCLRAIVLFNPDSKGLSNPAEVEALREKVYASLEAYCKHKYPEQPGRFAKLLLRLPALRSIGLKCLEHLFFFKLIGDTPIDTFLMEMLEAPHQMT

[2] = target: T1, RARA/RXRA heterodimer (ligand-binding …); experiment: FP; + DMSO (no ATRA)
[3] = target: T1, RARA/RXRA heterodimer (ligand-binding …); experiment: FP; + ATRA

B1: UBR5 aa1098 (peptide)
chain: LQPYLRELLSAKD
For B1, the “apparent binding constant (Kapp)” value [1] was 41.4 µM.

B2: Fluorescein-labelled NCOA1 peptide residues 687–698 (Flc-ARHKILHRLLQEGS) (peptide)
peptide: fluorescein-ARHKILHRLLQEGS
B2 showed a Kd [2] of 5.5 µM and a Kd [3] of 0.69 µM.

B3: NCOA1 aa686 (peptide)
chain: ARHKILHRLLQEGS
modifications: unlabelled competitor; the tracer form carries N-terminal fluorescein. The text prints limits 687-698 for a 14-mer; the LXXLL motif at 690-694 places RHKILHRLLQEGS at 686-698, with an extra N-terminal Ala in the printed peptide
For B3, the “apparent binding constant (Kapp)” value [1] was 3.7 µM.

B4: UBR5 aa1251 (peptide)
chain: RLDLLYRLLTATN
B4 was tested, and the “apparent binding constant (Kapp)” value [1] was 3.1 µM.
